Measurements published in CN107840891A.
Changes are numbered by the printed parent chain.

B1: 2G8 (scFv, V domains shown)
VH: QVQLQQPGAELVKPGASMKLSCKASGTQFANYRMHWVKQRPGQGLEWIGMIHPNSDNTIYYEKFKSKATLTVDKSSSTAYMQLSSLTSEDSAVYYCAIIITPVVPKFDYWGQGTTLTVSS
VL: DIVMTQSHQFMSTSVGDRVSVTCKASHDVGTSVAWYQQKPGQSPKLLIYWASTRHTGVPDRFTGSGSGTDFTLTISNVQSEDLADYFCQQYSSYPLTFGAGTKLELK
B2: MN单链抗体 (scFv MN, wild type) (scFv, V domains shown)
VH: B1 VH with T27Y, Q28T, A30T, N31S, R33W
VL: B1 VL
B3: 4C11 (scFv, V domains shown)
VH: B1 VH with T27Y, Q28T, A30T, N31S, R33W, P53L, D56A, N57Q
VL: B1 VL
B4: 3E12 (scFv, V domains shown)
VH: B1 VH with T27Y, Q28T, A30T, N31S, R33W, H52N, P53L, N54V, D56S, N57R
VL: B1 VL
B5: 4D7 (scFv, V domains shown)
VH: B1 VH with T27Y, Q28T, A30T, N31S, R33W, I99T, T101S
VL: B1 VL
B6: 4A12 (scFv, V domains shown)
VH: B1 VH with T27Y, Q28T, A30T, N31S, R33W, I99V, T101L, V103F, V104L
VL: B1 VL
B7: 8C9 (scFv, V domains shown)
VH: B1 VH with T27Y, Q28T, A30T, N31S, R33W
VL: B1 VL with K24M
B8: 7D5 (scFv, V domains shown)
VH: B1 VH with T27Y, Q28T, A30T, N31S, R33W
VL: B1 VL with W50K, T53N, R54N, H55K, T56K
B9: 7E10 (scFv, V domains shown)
VH: B1 VH with T27Y, Q28T, A30T, N31S, R33W
VL: B1 VL with W50N, T53S, H55G, T56G
B10: 9F5 (scFv, V domains shown)
VH: B1 VH with T27Y, Q28T, A30T, N31S, R33W
VL: B1 VL with W50Q, T53K, R54K, H55E, T56K
B11: 5F7 (scFv, V domains shown)
VH: B1 VH with T27Y, Q28T, A30T, N31S, R33W
VL: B1 VL with S92A, T97S
B12: 2F9 (scFv, V domains shown)
VH: B1 VH with T27Y, Q28T, A30T, N31S, R33W, M50G, H52E, P53Q, D56S, N57E
VL: B1 VL
B13: 2D9 (scFv, V domains shown)
VH: B1 VH with T27Y, Q28T, A30T, N31S, R33W, P53A, N54Q
VL: B1 VL
B14: 3F9 (scFv, V domains shown)
VH: B1 VH with T27Y, Q28T, A30T, N31S, R33W, D56Q
VL: B1 VL

Assays:
[1] = molecular target: MSLN抗原 (Mesothelin, MSLN-Biotin) (human) (UniProt Q13421); assay: BLI (Octet RED96), MSLN-Biotin on AR2G sensor, TG1 periplasmic scFv as analyte
UniProt Q13421, sequence (Q13421 296-606 limits assumed): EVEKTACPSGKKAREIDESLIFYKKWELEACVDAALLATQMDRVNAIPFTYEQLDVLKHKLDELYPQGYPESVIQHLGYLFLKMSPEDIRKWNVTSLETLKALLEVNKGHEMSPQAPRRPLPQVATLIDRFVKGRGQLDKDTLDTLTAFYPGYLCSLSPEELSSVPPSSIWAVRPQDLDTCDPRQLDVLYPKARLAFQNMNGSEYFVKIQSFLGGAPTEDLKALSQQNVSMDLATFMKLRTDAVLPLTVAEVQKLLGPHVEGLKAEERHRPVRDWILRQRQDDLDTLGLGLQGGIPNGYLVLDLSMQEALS

[2] = molecular target: MSLN抗原 (Mesothelin, MSLN-Biotin) (human) (UniProt Q13421); assay: BLI (Octet RED96), MSLN-Biotin on AR2G sensor, TG1 periplasmic scFv as analyte (表2.1)
[3] = molecular target: MSLN抗原 (Mesothelin, MSLN-Biotin) (human) (UniProt Q13421); assay: BLI (Octet RED96), MSLN-Biotin on AR2G sensor, TG1 periplasmic scFv as analyte (表2.2)
[4] = molecular target: MSLN抗原 (Mesothelin, MSLN-Biotin) (human) (UniProt Q13421); assay: BLI (Octet RED96), MSLN-Biotin on AR2G sensor, TG1 periplasmic scFv as analyte (表2.4)

Binder	koff [1] [s⁻¹]	响应 [1]	further results
B1	0.00111	1.11	
B2			koff [2]: 0.000164 s⁻¹; 响应 [2]: 0.37; koff [3]: 0.000221 s⁻¹; 响应 [3]: 0.38; koff [4]: 0.000188 s⁻¹; 响应 [4]: 0.37
B3	0.000133	1.16	
B4	9.73e-05	1.04	
B5	0.000321	0.96	
B6	0.0001	0.91	
B7	0.000356	0.93	
B8	0.000395	0.94	
B9	0.000401	1.02	
B10	0.000294	0.97	
B11	0.000613	0.73	
B12	0.00166	0.13	
B13	0.000217	1.25	
B14	0.000164	1.38	
